Test: soluble fraction after stress (log2 fold change); higher = more stays soluble; pooled small domains, quantitative proteomics
Conditions: stress: 75 degC
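Note: 20 min heating vs room temperature control held 20 min.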

| Sequence | soluble fraction (log2) |
| --- | --- |
| HMLTRRQSEVLDFIRQFAESESMPPTLHEIAKGMGFSSDNAARDHVRALARKGAIDLVGGTSRGIRLR | -1.22 |
| HMQVSDAAQLAEVVKTVLAENPAAVGDYRKGKKAAIGFLLGQVMRHMRGTANPAVARQLLEQALEDE | -0.076 |
| HMVRQKYKSNFITVGDKSLTIHDWAQRLNLSQYALRNRYKEFGKEWVEKAIKTILETGDNTHIYK | -1.46 |
| HMSKTKDVLVQLMAERGLTQSDIARALSVRPQAVQQWVSGKTRPTGKNLEALAEFLQLPPAVIVHGP | -0.282 |
| HMQRGRTFSIVLNWKGRLLSTQMFFPQFTRPTKEQVTFEINKVYPGAMVYYYNPIEKDPSQPLV | -2.26 |
| HMHGETLAAKRREEIKVRIQNIYDQSEQIFGYRKITATLRSQGVVVSEKLVSQLMRELEISSVS | -3.92 |
| HMDDATIKVNIAAKFLNAGNNLFVDIDTTVLEGRVLLTGLVDTQEVRIDAVRLVWEVEGIREVINEIEIG | -5.19 |
| HMRTRSDVKRAAIIQAAKDAFQEYGVNATSMDKLAEMASVSKRTVYNHFSAKEELVMHIVKE | 0.538 |
| HMNLGDSLFHARRKQGLSQEAVAEQLGVSRQTVSKWEANETLPDIRQSKLMAKLYHTSLDELI | 0.0881 |
| HMVSLTGEWRPSKDALDILITKGGINPNFIDDAVPEFILYWRDRGDVSNTWDSKFIQHVRRQWQFYTGI | -2.87 |
| HMLQESDPEALRGIVKSVLVDHAAVAEEYRAGKQSVLQFLVGQGMKASKGAGNPGLIRDLMLEEL | -0.237 |
| HMSQLDITEARIVVSGGLGMQGPENFKLLEELAKVLGGAVGASRPVVDNGWREYSNQVGQTGKIVAPELYV | 0.0901 |
| HMDIRLMPGTVLTREYQGIEHRVTVAQDGQYEFEGRRYPSLSMIAREITGTRWSGPLFFGVK | -1.09 |
| HMGQAVTMLKAGRLLANAKGTGAPVRSLEPGMLLYPTGVKEGTMWEVEDEMGNKGWVNSTLMETA | -0.6 |
| HMIQNEITLMLQVNGKLRGQIQVPSDASKEQIEQLAKDSEAAQKALAGASPKKIIVVPGRLVNIV | -0.792 |
| HMAYWVVKNNQVSLQINRSNYQITSTARALSNGNLGDEIDVKVLQSGVIKKAVVIGKGQVELLR | -3.24 |
| HMEAALTLRVDKAGSLRSLLSDEQYAKTSKIIVSGEINTLDIKTLQEMSGEKGSLQSIDLSQANIVAY | 0.0407 |
| HMHDLTERQREILQTLASGKMALREILSILSQPPSLRTLRDELYHLKRIGLVDTMGYGRGATWFLTQ | -0.223 |
| HMNAMFEKVLAAVMGFIGVSAFAKNADGKSEMTSDQEKRLTDKWGSKFVEEFKNDLLEYEKNGNAAEDAV | -0.944 |

| Sequence | soluble fraction (log2) |
| --- | --- |
| HMQPRYMLIKTAILDAIERGEMKPGSQVPSENQLAQQHNVSRMTARRALSEMVDDGILMRSQGIGTFVSD | -0.228 |
| HMDTEVVMINVVGMNIDKAKNSLNHKNILYKISYQDVSEGENNVVLKQSISSNTKIKKGQVVSLVVGKLN | -1.42 |
| HMTATWLTYYRIKAGLTQKRLAELAGLNIRQVQKIENGETLAGNTTAKNLLALADALGIDPHKL | -2.15 |
| HMERQILFTKEDLIEFGLSGGTDSRKRRDVLGHILGIGYSNSKQFLNRLNNFGVTREEFLSAIERIG | -0.816 |
| HMTVRLSVSADGKFFWNESQVSEEELFPRLQAEAAKEPQPDLHIRGDKNVRYEFVAQAMAAAQRAGVRKI | -0.797 |
| HMQKEIKVPDVANMALSEAVEKLQNEGFKVADEQKEVSSDEIEEGKVVKTSPVAGTKKTKGSEITIYISSG | 0.26 |
| HMGIDRPLFTLAQFARQIGEQVKISLSLPQDGRRRLQGKVLSVGESGIVLDVDGREFTVAIGNVDKARL | -1.83 |
| HMKELLTKQQREEILETVKTKTPKDFGYTAEHWTTGFLGKWIEEHYEVEYKSKTSLYLVFKKASFTYHKPG | 0.24 |
| HMEPTAEQLKAIRQFASVNGRSWKSELRYLWETGAYHRAALGGADPGYLQQVRNQFGPGWLRAFKISK | -1.87 |
| HMLQMSDSSALEAILDEVLGSEMGQKALSDIEAGNMKAMGFIIGQSMKLSKGQANPQIINKLLQQRLK | -0.326 |
| HMAAVSSHAVKQRIRSLIQAEDPASPLSDEALRLALSALGVEVSRRAVAKYRTSMDIPASSQRKK | -0.656 |
| HMTEPLTKREKEVLLLLPRGLTAKAMASELFLTEATIKSHLAAIFRKFKVVNRTQAIAIAVESKILT | -2.41 |
| HMNPSKEFNMSDLLKAKMVGDVSAAKRREKAGALLHIGYGNAKTFLKKLNHFSISREEWDKVIAAMEEF | -1.26 |
| HMWGAYHDGQVVKFPKKVTVYVIDGQYKRPLANEFVLKFLNYKTSDIIIDKDGNLNNYKNGAVVEH | -2.79 |
| HMKKDNLKKIKSIDEDIENELFKLGIYHFEQISIWSSKNAEWIENFLNLPNYVRANQWVEQAKILK | -1.57 |
| HMRPKAIFVDVDDTLVRSVGQTRIPMPAVIAHIRRLHDAGHQLYLWSSGGADYARASAEELGIGQYFQAFL | -0.268 |
| HMKELFGQRLREQRLKQNLTLEQLAEKANLSPNYVGMVERGLKEPGLATIVKLLNGLNVSADTLL | -0.446 |
| HMEFSYLEEIGHEKGDLIKGLQLIQQKEGYVSDDAVRAVAENFGMSPAEVEGVLTFYAQFKR | -0.162 |
| HMTMSFSELLRGLRKSRGMSQAELATAVGLSQAQVSQIETGKLLPSPELIEKLAALYGIALGSA | 0.279 |

| Sequence | soluble fraction (log2) |
| --- | --- |
| HMEDVPYMIKLPSHHYLTKMVDGSTGWSLVQNSNTVVGSSKEELLKQYPEYEDFIVQEPLNV | -0.0186 |
| HMPAQPEPYNNLARLYSAQGKLDQAASLLRAGLYTDPAYRALFDNLTRIYAEQAARSLSAALD | -1.1 |
| HMPNILLSVKDASVAISVSSKMVRLLIASGRLKAVNLGKRMTRISLQELTDFAQRQGGNVVLP | -0.123 |
| HMSTMTGTVDTPGASLNVRTGAWGPIVGQLAHGSKVTIIGSSGDWFKISYNGATRYVHKNYVNTT | -0.683 |
| HMFNFPEEVRVQLAKSEQLRNLLIPMSETVRDALSGEELWFGRTIFNTTSKKIESWTNPGVWVE | -1.39 |
| HMHLNVYRDEDEAMLAFKDHLIGTHQPIRVRVEKALPDGTMGHKIVDTTIGRIVFNHNIPQD | -0.185 |
| HMIFNENLKSAREKKGLSQKEVAEAIGVAKSTYSLYESGNREPNVQTIKRIADVLNVSADVLLGL | -0.136 |
| HMEDVDTAALEKVIATAKGLNKNDYTATTWTTMQAALTNAEKALEAKKSQTSVDEAAKTLQAAIDGLKKAS | 0.336 |
| HMSEKLLTLNEISEKLRVSRHTVQAWVSPSSPNHRPEFSSLARHAGRKTVFLESDVDAWLAQRR | -1.07 |
| HMKMTFGENLHKLRKIYRLSQEDVASAINLKRSDIAAVEKGDRVLNDEELDKLADFIGIDIVDLL | -0.479 |
| HMTPPPTNSREWMEWGISHGLDANLDRSGQVVFYTDDRVVADAAELSGADLERDNMGQFVIYTGAYDKG | 0.0155 |
| HMTPLFNQGEVLKGFVLQTGTNNRVLLQIGTAKVLADAQTPLKAGEQLTLRVEATGPRTVLQILG | -0.461 |
| HMRSAKLPYSEFLKLVDTDKVNDVSIVGRTISGHLDDGSKFSTYTPPNDPNIIEKLSSHNVIINSAPE | 0.0959 |
| HMSVEVPNLIGKTLDQVDIDLKSLDLSFVILDSARYNSSFKPLSVIDHQPISGAKVKVNRKIYLTINPS | -0.411 |
| HMAGSGDLNAKYLASIPAPMKAKILKAVANHYGVSISEFEEEVTDKDAEALYEYIPTRSMAVQVLRDMKG | -0.829 |
| HMNDEFYAVVRESYAGYALVKPLDEDVGYDILSVSVKNLKVGDIIRLKVKNIKEIYPPEAEVLEVEVLQ | -0.316 |
| HMTNEAFITPSVLEWAIKRAGVSAESIHKKAEQWVSGKARPTFKQAVDIAKTLQIPFGYLWLKEPPKEQ | -0.949 |
| HMDKAALGQKLRQARLDKGYTQQSLSEKADIGEVYLSEIERGLKMPSMNLFIKLITALDISADYILR | -2.94 |

Source: the domain aggregation screens of Martell et al. (2025)
